The values that follow are results of earlier work, collected in article PMC3713533.

For the data set, the target named is VWF73 VWF73 (Homo sapiens) (UniProt P04275).
Sequence of UniProt P04275 (P04275 1596-1668): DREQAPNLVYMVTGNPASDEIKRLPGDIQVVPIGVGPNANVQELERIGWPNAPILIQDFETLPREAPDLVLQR

For the substance “ADAMTS13 TSP1 repeat 1 (from UniProt Q76LX8)”, the Kd is 136 nM.

The term Kd denotes the equilibrium constant for the complex coming apart.
